Assay results taken from publication PMC3773608 (Journal of molecular neuroscience : MN, 2009).

Molecular target: GST-PSD-95 (rat, UniProt P31016 1-724)
Assay: co-IP

GST-PSD-95, sequence (P31016 whole entry): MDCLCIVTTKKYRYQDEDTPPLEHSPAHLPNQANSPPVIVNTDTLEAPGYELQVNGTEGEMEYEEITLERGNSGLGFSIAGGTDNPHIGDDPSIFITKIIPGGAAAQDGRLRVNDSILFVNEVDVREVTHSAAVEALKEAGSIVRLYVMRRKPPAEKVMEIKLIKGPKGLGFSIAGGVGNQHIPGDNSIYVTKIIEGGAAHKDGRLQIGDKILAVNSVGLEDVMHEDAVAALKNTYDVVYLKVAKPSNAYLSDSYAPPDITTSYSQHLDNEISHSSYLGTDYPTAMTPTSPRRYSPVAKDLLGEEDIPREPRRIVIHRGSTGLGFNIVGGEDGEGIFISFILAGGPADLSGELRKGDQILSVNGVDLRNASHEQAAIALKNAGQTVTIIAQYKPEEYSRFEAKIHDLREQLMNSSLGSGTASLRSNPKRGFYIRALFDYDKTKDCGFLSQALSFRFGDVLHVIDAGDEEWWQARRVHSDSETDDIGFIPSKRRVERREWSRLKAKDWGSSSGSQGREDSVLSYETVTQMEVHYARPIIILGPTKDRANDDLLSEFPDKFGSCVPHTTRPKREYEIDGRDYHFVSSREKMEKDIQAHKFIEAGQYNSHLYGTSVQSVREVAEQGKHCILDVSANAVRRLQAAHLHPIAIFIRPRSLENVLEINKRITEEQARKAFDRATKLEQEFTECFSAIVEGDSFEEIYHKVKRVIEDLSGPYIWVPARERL

B1: GST-ILK (enzyme, rat, UniProt Q99J82 1-452, looked up)
chain: MDDIFTQCREGNAVAVRLWLDNTENDLNQGDDHGFSPLHWACREGRSAVVEMLIMRGARINVMNRGDDTPLHLAASHGHRDIVQKLLQYKADINAVNEHGNVPLHYACFWGQDQVAEDLVANGALVSICNKYGEMPVDKAKAPLRELLRERAEKMGQNLNRIPYKDTFWKGTTRTRPRNGTLNKHSGIDFKQLNFLAKLNENHSGELWKGRWQGNDIVVKVLKVRDWSTRKSRDFNEECPRLRIFSHPNVLPVLGACQAPPAPHPTLITHWMPYGSLYNVLHEGTNFVVDQSQAVKFALDMARGMAFLHTLEPLIPRHALNSRSVMIDEDMTARISMADVKFSFQCPGRMYAPAWVAPEALQKKPEDTNRRSADMWSFAVLLWELVTREVPFADLSNMEIGMKVALEGLRPTIPPGISPHVCKLMKICMNEDPAKRPKFDMIVPILEKMQDK
binding result: binds
